US20030087866

Biological target: T1, purified recombinant R2 protein, P11157
T1 chain: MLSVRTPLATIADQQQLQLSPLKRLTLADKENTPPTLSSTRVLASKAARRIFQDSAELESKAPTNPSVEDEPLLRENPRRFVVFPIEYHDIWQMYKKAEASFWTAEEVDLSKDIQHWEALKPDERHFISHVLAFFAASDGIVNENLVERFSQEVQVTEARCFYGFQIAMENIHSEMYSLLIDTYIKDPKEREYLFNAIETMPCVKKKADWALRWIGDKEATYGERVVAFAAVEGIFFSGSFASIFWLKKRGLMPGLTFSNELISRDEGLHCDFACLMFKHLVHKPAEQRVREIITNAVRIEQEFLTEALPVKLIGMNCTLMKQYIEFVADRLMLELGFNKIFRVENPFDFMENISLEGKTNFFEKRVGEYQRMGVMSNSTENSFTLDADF

B1: human Myc epitope-tagged mouse ribonucleotide reductase R1 protein (protein)
chain: EQKLISEEDLMHVIKRDGRQERVMFDKITSRIQKLCYGLNMDFVDPAQITMKVIQGLYSGVTTVELDTLAAETAATLTTKHPDYAILAARIAVSNLHKETKKVFSDVMEDLYNYINPHNGRHSPMVASSTLDIVMANKDRLNSAIIYDRDFSYNYFGFKTLERSYLLKINGKVAERPQHMLMRVSVGIHKEDIDAAIETYNLLSEKWFTHASPTLFNAGTNRPQLSSCFLLSMKDDSIEGIYDTLKQCALISKSAGGIGVAVSCIRATGSYIAGTNGNSNGLVPMLRVYNNTARYVDQGGNKRPGAFAIYLEPWHLDIFEFLDLKKNTGKEEQRARDLFFALWIPDLFMKRVETNQDWSLMCPNECPGLDEVWGEEFEKLYESYEKQGRVRKVVKAQQLWYAIIESQTETGTPYMLYKDSCNRKSNQQNLGTIKCSNLCTEIVEYTSKDEVAVCNLASLALNMYVTPEHTYDFEKLAEVTKVIVRNLNKIIDINYYPIPEAHLSNKRHRPIGIGVQGLADAFILMRYPFESPEAQLLNKQIFETIYYGALEASCELAKEYGPYETYEGSPVSKGILQYDMWNVAPTDLWDWKPLKEKIAKYGIRNSLLIAPMPTASTAQILGNNESIEPYTSNIYTRRVLSGEFQIVNPHLLKDLTERGLWNEEMKNQIIACNGSIQSIPEIPDDLKQLYKTVWEISQKTVLKMAAERGAFIDQSQSLNIHIAEPNYGKLTSMHFYGWKQGLKTGMYYLRTRPAANPIQFTLNKEKLKDKEKALKEEEEKERNTAAMVCSLENREECLMCGS
ribonucleotide reductase activity of the 9E10-immunoprecipitated R1 combined with purified recombinant R2: enzyme activity of 15.4±2.0 pmoles/mg/hr was detected when C1/mR1 cells (Table 1) were used as a source of recombinant R1
